Data reported in patent US20050084868A1 (published 2005).

B1: NA05.9 (scFv)
chain: QVQLQQSGAELVRPGTSVKLSCTASGFNIKDSYMHWVRQGPGQGLEWIGWIDPENGDTEYAPKFQGKATFTTDTSSNTAYLQLSSLTSEDTAVYYCNEGTPTGPYYFDYWGQGTTVTVSSGGGGSGGGGSGGGGSQNVLTQSPAIVSASPGEKVTITCSASSSVSYMHWFQQKPGTSPKLVIYSTSNLASGVPARFSGSGSGTSYSLTISRMEAEDAATYYCQQRSSYPLTFGGGTKLELKRAATLVSEKQLAEVVANTITPLMKAQSVPGMAVAVIYQGKPHYYTFGKADIAANKPVTPQTLFELGSISKTFTGVLGGDAIARGEISLDDAVTRYWPQLTGKQWQGIRMLDLATYTAGGLPLQVPDEVTDNASLLRFYQNWQPQWKPGTTRLYANASIGLFGALAVKPSGMPYEQAMTTRVLKPLKLDHTWINVPKAEEAHYAWGYRDGKAVRVSPGMLDAQAYGVKTNVQDMANWVMANMAPENVADASLKQGIALAQSRYWRIGSMYQGLGWEMLNWPVEANTVVETSFGNVALAPLPVAEVNPPAPPVKASWVHKTGSTGGFGSYVAFIPEKQIGIVMLANTSYPNPARVEAAYHILEALQ
notes: Variant of the CAB1 scFv-BLA fusion, tested as crude lysate; Positions are numbered along the whole CAB1 fusion (pME27)
B2: NA05.12 (scFv)
chain: QVQLQQSGAELVRPGTSVKLSCTASGFNIKDSYMHWVRQGPEQGLEWIGWIDPENGDTEYAPKFQGKATFTTDTSSNTAYLQLSSLTSEDTAVYYCNEGTPTGPYYFDYWGQGTTVTVSSGGGGSGGGGSGGGGSENVLTQSPAIVSASPGEKVTITCSASSSVSYMHWFQQKPGTSPKLWIYSTSNLASGVPARFSGSGSGTSYSLTISRMEAEDAATYYCQQRSSYPLTFGAGTKLELKRAATLVSEKQLAEVVANTITPLMKAQSVPGMAVAVIYQGKPHYYTFGKADIAANKPVTPQTLFELGSISKTFTGVLGGDAIARGEISLDDAVTRYWPQLTGKQWQGIRMLDLATYTAGGLPLQVPDEVTDNASLLRFYQNWQPQWKPGTTRLYANASIGLFGALAVKPSGMPYEQAMTTRVLKPLKLDHTWINVPKAEEAHYAWGYRDGKAVRVSPGMLDAQAYGVKTNVQDMANWVMANMAPENVADASLKQGIALAQSRYWRIGSMYQGLGWEMLNWPVEANTVVETSFGNVALAPLPVAEVNPPAPPVKASWVHKTGSTGGFGSYVAFIPEKQIGIVMLANTSYPNPARVEAAYHILEALQ
notes: as for B1
B3: NA05.15 (scFv)
chain: QVKLQQSGAELVRSGTSVKLSCTASGFNIKDSYMHWLRQGPEQGLEWIGWIDPENGDTEYAPKFQGKATFTTDTSSNTAYLQLSSLTSEDTAVYYCNEGTPTGPYYFDYWGQGTTVTVSSGGGGSGGGGSGGGGSENVLTQSPAIVSASPGEKVTITCSASSSVSYMHWYQQKPGTSPKLWIYSTSNLASGVPDRFSGSGSGTSYSLTISRMEAEDAATYYCQQRSSYPLTFGAGTKLELKRAATLVSEKQLAEVVANTITPLMKAQSVPGMAVAVIYQGKPHYYTFGKADIAANKPVTPQTLFELGSISKTFTGVLGGDAIARGEISLDDAVTRYWPQLTGKQWQGIRMLDLATYTAGGLPLQVPDEVTDNASLLRFYQNWQPQWKPGTTRLYANASIGLFGALAVKPSGMPYEQAMTTRVLKPLKLDHTWINVPKAEEAHYAWGYRDGKAVRVSPGMLDAQAYGVKTNVQDMANWVMANMAPENVADASLKQGIALAQSRYWRIGSMYQGLGWEMLNWPVEANTVVETSFGNVALAPLPVAEVNPPAPPVKASWVHKTGSTGGFGSYVAFIPEKQIGIVMLANTSYPNPARVEAAYHILEALQ
notes: as for B1

Each binder was assayed against T1, carcinoembryonic antigen (UniProt P06731 35-685) (assay: plate assay: CEA coated on wells, culture lysate added, bound fusion read by BLA activity on nitrocefin).
T1 construct: Bought reagent (Biodesign); also called CEA
T1 sequence: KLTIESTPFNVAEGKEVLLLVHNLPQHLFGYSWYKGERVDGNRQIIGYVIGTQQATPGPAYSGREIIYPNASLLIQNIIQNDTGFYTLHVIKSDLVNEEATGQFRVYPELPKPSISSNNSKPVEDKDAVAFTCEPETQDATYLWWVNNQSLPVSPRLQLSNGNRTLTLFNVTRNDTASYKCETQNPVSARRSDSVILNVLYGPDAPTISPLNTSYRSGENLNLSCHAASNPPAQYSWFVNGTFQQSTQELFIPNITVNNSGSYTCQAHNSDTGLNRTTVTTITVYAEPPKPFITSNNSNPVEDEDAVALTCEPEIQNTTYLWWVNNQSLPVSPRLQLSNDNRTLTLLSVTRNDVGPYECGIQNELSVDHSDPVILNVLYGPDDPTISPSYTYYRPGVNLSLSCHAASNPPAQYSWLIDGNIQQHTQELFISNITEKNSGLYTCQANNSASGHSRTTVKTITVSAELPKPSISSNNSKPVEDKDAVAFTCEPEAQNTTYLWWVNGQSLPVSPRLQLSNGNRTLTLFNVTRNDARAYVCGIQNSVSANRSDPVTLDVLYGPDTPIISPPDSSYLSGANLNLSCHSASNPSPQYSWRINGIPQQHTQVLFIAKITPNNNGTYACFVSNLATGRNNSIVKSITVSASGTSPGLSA

Binder	binding result
B1	binds
B2	binds
B3	binds
